Experimental findings from the nanobody polyreactivity screen of Harvey et al. (2022) are described below.

This data set is described as follows: yeast display, Sf9 membrane polyspecificity reagent, FACS + sequencing; frameworks hold sequencing errors. The procedure, abridged:
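Synthetic nanobody libraries on Saccharomyces cerevisiae BJ5465 were galactose-induced for 36–48 hours, stained 1 hour at 4 °C with 10% biotinylated, detergent-solubilized Sf9 membrane reagent and enriched on streptavidin microbeads. FACS then separated cells into low and high (top ~1%) gates by anti-HA (expression) and streptavidin (reagent binding) fluorescence. Genes were colony-PCR amplified, MiSeq 2 × 250 sequenced and CDR-length filtered. A clone's polyreactivity label is that of its gate of origin.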
Regarding “QVQLVESGGGLVQAGGSLRLSCAASGSIFTFYAMGWYRQAPGKERELVARITNVGNTNYADSVKGRFTISRDNAKNTVYLQMNSLKPEDTAVYYCAARWYWGWTRGDYWGQGTQVTVSS”, the “polyreactivity (PSR sort gate)” value is listed as “high polyreactivity”.

For the sequence “QVQLVESGGGLVQAGGSLRLSCAASGSIFTFYAMGWYRQAPGKEREVVARITNGGNTNYADSGKGRFTISRDNAKNTVYLQMNSLKPEDTEVYYCAARWYWGWTRGDYWGQRTQVTVSS”, the “polyreactivity (PSR sort gate)” value is “high polyreactivity”.

“QVQLVESGGGLVQAGGSLRLSCAASGSIFTGNAMGWYRPAPGKERELVAAISSSGGSTYYADSVKGRFTISRDNSKNTVYLQMNSLKPEDTAVYYSAAYNYFLQYDYWGHGTQVTVSS”: the “polyreactivity (PSR sort gate)” value is “low polyreactivity”.

For the sequence “QVQLVESGGGLVQAGGSLRLSCAASGSIFTGNAMGWYRQAPGKERELVAAITQRGGRTYYADSVKGRFTISRDNAKNTVYLQMNSLKPKIPAVYYCNAKWTTLFDYWGQGTQVTVSS”, the “polyreactivity (PSR sort gate)” value is given as “high polyreactivity”.

As for “QVQLVESGGGLVQAGGSLRLSCAASGSIFTGYAMGWYRQAPGKERELVAAISASGTRTYYADSVKGRFTISRDNAKNTVYLQMNSLKPEDTAVYYCARDSLQVFYPYASDDYWGQGTQVTVSS”, the “polyreactivity (PSR sort gate)” value is recorded as “low polyreactivity”.

In the case of “QVQLVESGGGLVQAGGSLRLSCAASGSIFTGYAMGWYRQAPGKERELVAAISNSGTATYYADSVKGRFTISRDNAKNTVYLQMNSLKPEDSAVYYCNTVGHRWLSDDDYWGQGTQVTVSS”, the “polyreactivity (PSR sort gate)” value is “low polyreactivity”.

Consider “QVQLVESGGGLVQAGGSLRLSCAASGSIFTGYAMGWYRQAPGKERELVAAISRSSGSTYYADSVKGRFTISRDNAKNTVYLQMNSLIPEDTAVYYCNAYSKYRSGRLYWMGYWGQGTQVTVSS”, for which the “polyreactivity (PSR sort gate)” value was “low polyreactivity”.

With “QVQLVESGGGLVQAGGSLRLSCAASGSIFTGYAMGWYRQAPGKERELVAAISWSGGSTSYADSVKGRFTISLDKAKNDVYLQMNSLKPEDTAVYYCAAERKARTYGYWGQGTEVTVSS”, the “polyreactivity (PSR sort gate)” value is “high polyreactivity”.

“QVQLVESGGGLVQAGGSLRLSCAASGSIFTHNAMGSYRQAPGKERELVAAISSGGSTNYADSVKGRFTISRDNAMNTVYLQMNSLKPDDTAVYYCAISIDGWYWRRRRYDYWGQGTQVTVSS”: the “polyreactivity (PSR sort gate)” value was “low polyreactivity”.

“QVQLVESGGGLVQAGGSLRLSCAASGSIFTHNAMGWYRQAPGNERELVAAISSGGSTNYADSVKGRFTISRDNAKNTVYLQMNSLKPEDTAVYYCAKSIDGWYWRRRRYDYWGQGTQVTVSS”: the “polyreactivity (PSR sort gate)” value was “low polyreactivity”.

As to “QVQLVESGGGLVQAGGSLRLSCAASGSIFTHYAMGWYRQAPGKERELVAAIARRGGSTYYADSVKGRFTISRDNAKNTVYLQMNSLKPEDTAVYYCAKSPDTAKEYDYWGQGTQVTVSS”, the “polyreactivity (PSR sort gate)” value is given as “high polyreactivity”.

As for “QVQLVESGGGLVQAGGSLRLSCAASGSIFTINAMGWYRQAPGKERELVAAISFSGGRTYYADSVKGRFTISRDNAKNTVYLQMNSLKPEDTAVYYCAAPFYYYGVRFDYWGQGTQVTVSS”, the “polyreactivity (PSR sort gate)” value is “high polyreactivity”.

With “QVQLVESGGGLVQAGGSLRLSCAASGSIFTKYAMGWYRQAPGKERELVAAISQGGASTRYADSVKGRFTISRDNAKNTVYLQMNSLKPVDTADEYCAAKSRHFWMDYWGQGTQVTVSS”, the “polyreactivity (PSR sort gate)” value is “high polyreactivity”.

As to “QVQLVESGGGLVQAGGSLRLSCAASGSIFTLYAMGRYRQAPGKERELVAAITWSGGSSYYADSVKGRFTISRDNAKNTVYLQMNSLKPEDTAVYYCAKDYLAGGPWEGLVEREYDYWGQGTQVTVSS”, the “polyreactivity (PSR sort gate)” value is given as “low polyreactivity”.

Consider “QVQLVESGGGLVQAGGSLRLSCAASGSIFTLYAMGWYRQAPGKDRELVATINWSGGSTSYADSGKGRFTISRDNAKNTVYLQMNSLKPEETAVYYCARLGTYTVVTYDYWGQGTQVTVSS”, for which the “polyreactivity (PSR sort gate)” value is “low polyreactivity”.

As to “QVQLVESGGGLVQAGGSLRLSCAASGSIFTLYAMGWYRQAPGKERELVAAITSGGRTYYADSVKGRFTISRDNAKNTVYLQMKSLKPEDTAVYYCNAVSRSWDFEYWGQGTQVTVSS”, the “polyreactivity (PSR sort gate)” value is “high polyreactivity”.

For the sequence “QVQLVESGGGLVQAGGSLRLSCAASGSIFTPNTMGWYRQAPGKEREFVAAITFSGGSTYYADSVKGRFTISRDNAKNTVYLQMNSLKPEDTAVYYCAAVYPTYDWYTPAYYYWGQGTQVTVSS”, the “polyreactivity (PSR sort gate)” value is “low polyreactivity”.

On to “QVQLVESGGGLVQAGGSLRLSCAASGSIFTPYAMGWSRQAPGKERELVAVISWRVDSTYYADSVKGRFTISRDNAKNTVYLQMNSLKPEDTAVYYCAAKSYLLAPFGSGNRWSRYDYWGQGTQVTVSS”, for which the “polyreactivity (PSR sort gate)” value is reported as “high polyreactivity”.

Consider “QVQLVESGGGLVQAGGSLRLSCAASGSIFTPYAMGWYRQAPGKERELVAVISWRVDSTYYADSVKGRFTISRDNAKNTVYLQMNSLKPEDTAVYYCAAKSYLLAPFGSGNRWSRYDYWGQGTQVTVSS”, for which the “polyreactivity (PSR sort gate)” value was “high polyreactivity”.

For the sequence “QVQLVESGGGLVQAGGSLRLSCAASGSIFTPYAMGWYRQEPGKERELVAAISRSGGSTYYADSVKGRFTISRDNAKNTVYLQMNSLKPEDTAVYYCAVVVYDIYGYESDYWGQGTQVTVSS”, the “polyreactivity (PSR sort gate)” value is listed as “low polyreactivity”.

With “QVQLVESGGGLVQAGGSLRLSCAASGSIFTPYTMVWYRQAPGKERELVAAIRPNSGSTYYADSVKGRFTISRDNAKNTVYLQLNSLKPEDTAVYYCNAQCYGPGGGYFWSYDYWGQGTQVTVSS”, the “polyreactivity (PSR sort gate)” value is “low polyreactivity”.

As for “QVQLVESGGGLVQAGGSLRLSCAASGSIFTRNAMGWYRQAPGKERELVAAITSGGRTYYADSVKGRFTISRDNAKNTVYLQMNSLKPEDTAVYYCNAYAWGWYDYWGQGTQVTVSS”, the “polyreactivity (PSR sort gate)” value was “high polyreactivity”.

On to “QVQLVESGGGLVQAGGSLRLSCAASGSIFTRNAMGWYRQAPGKERELVASISWRGGSTYYADSVKGRFTISRDNAKNTVYLQMNSLKPEDTAVYYCNRRAYRNGYGFRDGTWEYDYWGQGTQVTVSS”, for which the “polyreactivity (PSR sort gate)” value is “high polyreactivity”.

In the case of “QVQLVESGGGLVQAGGSLRLSCAASGSIFTRNAMGWYRQAPGKERELVATIRKNGASTTYADSVKGRFTISRDNAKNTVYLQMNSLKPEDTAVYYCARDHHTKYNYWGQGTQVTVSS”, the “polyreactivity (PSR sort gate)” value is recorded as “low polyreactivity”.

For “QVQLVESGGGLVQAGGSLRLSCAASGSIFTRNAMGWYRQAPGKERELVATITSNDGSTNYADSVKGRFTISRDNAKNTVYLQMNSLKPEDTAVYYCNRSYGVYSEFDYWGQGTQVTVSS”, the “polyreactivity (PSR sort gate)” value was “low polyreactivity”.

As for “QVQLVESGGGLVQAGGSLRLSCAASGSIFTRNTMGWYRQAPGKERELVAAITSSGGSTYYADSVKGRFTISRDTAKNTVYLQMNSLKPEDTAVYYCAADVGVYYYSFYYWGQGTQVTVSS”, the “polyreactivity (PSR sort gate)” value is “high polyreactivity”.

Take “QVQLVESGGGLVQAGGSLRLSCAASGSIFTRYAMGWYRQAPGKERELVAAISYRGDRTYYADSVKGRFTISRDNAKNTVYLQMNSLKPEDTAVYYCAATVQYSPIYDYWGQGTQVTVSS”: the “polyreactivity (PSR sort gate)” value is recorded as “high polyreactivity”.

For “QVQLVESGGGLVQAGGSLRLSCAASGSIFTRYAMGWYRQAPGKERELVAAITKSGSRTYYADSVKGRSTISRDNAKNTVYLQMNSLKPEDTAVYYCATLQGDSSSQYDYWGQGTQVTVSS”, the “polyreactivity (PSR sort gate)” value is recorded as “high polyreactivity”.

In the case of “QVQLVESGGGLVQAGGSLRLSCAASGSIFTRYAMGWYRQAPGKERELVAVISVSGGRTYYADSVKGRFTISRDNAKNTVYLQMNSLKPEDTAVYYCAVGVLYAGYFYRYRYYYWGQGTQVTVSS”, the “polyreactivity (PSR sort gate)” value is on record as “high polyreactivity”.

For the sequence “QVQLVESGGGLVQAGGSLRLSCAASGSIFTSYAVMGWYRQAPGKERELVAVITGGGITTYADSVKGRFTISRDNAKNTVYLQMNSLKPEDTAVYYCATDGWYHSEYDYWGQGTQVTVSS”, the “polyreactivity (PSR sort gate)” value is “low polyreactivity”.

Take “QVQLVESGGGLVQAGGSLRLSCAASGSIFTSYGMGWYRQAPGKERELVAAITYSGDRTYYADSVKGRFTISRDNAKITVYFQMNSLIPEDTAVYYCNVAYVYGSFRRRPMGYWGQGTQVTVSS”: the “polyreactivity (PSR sort gate)” value is recorded as “high polyreactivity”.

Turning to “QVQLVESGGGLVQAGGSLRLSCAASGSIFTTYTMGWYRQAPGKERELVAAITAGGGTTYYADSVKGRFTISRDNAKNTVYLQMNSLKPEDTAVYYCAAANSFYYIATGEYDYWGQGTQVTVSS”, the “polyreactivity (PSR sort gate)” value is reported as “high polyreactivity”.

For “QVQLVESGGGLVQAGGSLRLSCAASGSIFTVNAMGWYRQAPGKEREFVAAITGGGTSTYYADSVKGRFTISRDNAKNTVYLQMNSLKPEDTAVYYCAATTYHYSPTYGYWGQGTQVTVSS”, the “polyreactivity (PSR sort gate)” value is listed as “low polyreactivity”.

Take “QVQLVESGGGLVQAGGSLRLSCAASGSIFTVNAMGWYRQAPGKERELVAAISSGGSTHYADSVKGRFTISRDNAKNTVYLQMNSLKPEDTAVYYCAAVYVPYYGYSTRYDYWGQGTQVTVSS”: the “polyreactivity (PSR sort gate)” value was “low polyreactivity”.

On to “QVQLVESGGGLVQAGGSLRLSCAASGSIFTVNAMGWYRQAPGKERELVATITNGGGTYYADSVKGRFTISRDNAKNTVYLQMNSLKPEDTAVYYCAARTWGHYDYWGQGTQVTVSS”, for which the “polyreactivity (PSR sort gate)” value was “low polyreactivity”.

For “QVQLVESGGGLVQAGGSLRLSCAASGSIFTVNAMGWYRQARGKERELVAAISSGGSTHYADSVKGRFTISRDNAKNTVYLQMNSLKPEDTAVYYCARDRPGDYAGYDYWGQGTQVTVSS”, the “polyreactivity (PSR sort gate)” value was “low polyreactivity”.

In the case of “QVQLVESGGGLVQAGGSLRLSCAASGSIFTVYAMGWYRQAPGKERELVAAISSSGGTTYYADSVKGRFTISRDNAKNTVYLQMTSLKPEDTAVYYCAAPTHSPYDYWGQGTQVTVSS”, the “polyreactivity (PSR sort gate)” value is on record as “low polyreactivity”.

As for “QVQLVESGGGLVQAGGSLRLSCAASGSIFTVYGMGWYRQAPGKERELVAAISRSGGSTYYADSVKGRFTISRDNAKNTVYLQMNSLKPEDTAVYYCNADLVYNTLIYSGGDEYDYWGQGTQVTVSS”, the “polyreactivity (PSR sort gate)” value is reported as “high polyreactivity”.

“QVQLVESGGGLVQAGGSLRLSCAASGSIFTWYAMGWSRPAPGKERELVAAITRGGSTYADSVKGRFTISRDNAKNTVYLQMNSLKPEDSAVYYCNAVYGVYDFNYWGQGTQVTVSS”: the “polyreactivity (PSR sort gate)” value is recorded as “low polyreactivity”.

With “QVQLVESGGGLVQAGGSLRLSCAASGSIFTWYAMGWYRQAPGKEREFVDSITGSGGSTYYADSVKGRFTISRDNAKNTVYLQMNSLKPEDTAVYYCAKGHVYSSYRYRLRSTAFGYWGQGTQVTVSS”, the “polyreactivity (PSR sort gate)” value is reported as “high polyreactivity”.

In the case of “QVQLVESGGGLVQAGGSLRLSCAASGSIFTYNAMGWYRPAPGKERELVAAINTSGSTNYADSVKGRFTISRDNAKNTVYLQMNSLKPEDTAVYYCAAGIVVTGYDYWGQGTQVTVSS”, the “polyreactivity (PSR sort gate)” value is “low polyreactivity”.
